In patent US20060073508A1 (published 2006):

Biological target: GRK2 (βARK1)
Assay: cell-based or functional assay

B1: hemagglutinin epitope-tagged wild-type human alpha-2B adrenergic receptor (receptor)
chain: YPYDVPDYAMDHQDPYSVQATAAIAAAITFLILFTIFGNALVILAVLTSRSLRAPQNLFLVSLAAADILVATLIIPFSLANELLGYWYFRRTWCEVYLALDVLFCTSSIVHLCAISLDRYWAVSRALEYNSKRTPRRIKCIILTVWLIAAVISLPPLIYKGDQGPQPRGRPQCKLNQEAWYILASSIGSFFAPCLIMILVYLRIYLIAKRSNRRGPRAKGGPGQGESKQPRPDHGGALASAKLPALASVASAREVNGHSKSTGEKEEGETPEDTGTRALPPSWAALPNSGQGQKEGVCGASPEDEAEEEEEEEEEEEECEPQAVPVSPASACSPPLQQPQGSRVLATLRGQVLLGRGVGAIGGQWWRRRAQLTREKRFTFVLAVVIGVFVLCWFPFFFSYSLGAICPKHCKVPHGLFQFFFWIGYCNSSLNPVIYTIFNQDFRRAFRRILCRPWTQTAW
agonist-promoted whole cell phosphorylation of the receptor (10 µM norepinephrine): 5.84 fold increase
